Measured values published in the supplement of paper PMC12764529.
± gives the half width of the 95% confidence interval.

Tests used:
[1] = folding stability dG unfold from trypsin proteolysis; higher = more stable
In short: (§1)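 K50 was inferred by Bayesian fitting of sequencing counts obtained after protease digestion of designed mini-proteins. Unfolding free energy was derived by comparison with a sequence-predicted unfolded-state K50 and a shared folded-state K50, for each protease or both combined. The mini-proteins were under 80 residues, had no cysteine, were carried in a PA-tagged cDNA display construct, and were kept only if AlphaFold2 dimer inter-PAE exceeded 15.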

[2] = folding stability dG unfold (combined trypsin and chymotrypsin); higher = more stable
In short: as §1

[3] = folding stability dG unfold from chymotrypsin proteolysis; higher = more stable
In short: as §1

Sequence | folding stability dG unfold [1] [kcal/mol] | folding stability dG unfold [2] [kcal/mol] | folding stability dG unfold [3] [kcal/mol]
SAGGSAKTITIYAPDLPLSEAIETLERLIKELGLTPVSVSVSYNPETGTVTITVTLPNGDTLTLHVSAGGSA [r15_958_TrMRF] | 2.18 ± 0.058 | 2.99 ± 0.079 | 3.37 ± 0.046
SAGGSASAEEAARAFVAAHPDRALVEVEIERSFIPEKGVEVVTLTVTLAFPDGSRRVVPVTVTRPRSAGGSA [r15_266_JUSTAS] | 1.11 ± 0.044 | 1.13 ± 0.071 | 1.06 ± 0.044
SAGGSAGGSMLEEKIKQVPKSEKATITIKVKNENGKWKVVTVEVTYIEGKNEYEVKITITPEPGSAGGSAGG [r6_545_JUSTAS] | 1.73 ± 0.2 | 2.29 ± 0.3 | 3.04 ± 0.18
SAGGVITAEQLRDLVKTLPPDYTIRVKVYYSTSTEEYTITPDNPIKFPPNAPTETITRIEVVEISPDSAGGS [r16_97_TrMRF] | 3.87 ± 0.088 | 4.33 ± 0.068 | 4.43 ± 0.045
SAGMVLEYEGVDEEEKLLARAEELRAELRARHPRVRVELEVEVKPTPGNKYRYRVTLTIEPLAPDEARASAG [r5_936_JUSTAS] | 1.75 ± 0.11 | 1.99 ± 0.15 | 2.09 ± 0.11
SAGGSAGGSAMITTPKGERFEVPLRLTPDGRLEVLVVTDRPDDPEVRELAERLARELAERLSAGGSAGGSAG [r3_163_TrMRF] | 0.506 ± 0.11 | 0.484 ± 0.14 | 0.394 ± 0.17
SAGGSAGGSSSYSVPDSSSVTLETTVTITFPSSSVGGSPASSGPVAFTVPVKVTVSVTNPGVASAGGSAGGS [r12_668_JUSTAS] | 1.18 ± 0.029 | 1.02 ± 0.14 | 0.532 ± 0.18
SAGGKNVKKYVPIEIEIEAPSPEVAEATAEEIEKIIREKFPGAKVEVEMEPLPDGGYKLKVKVYVPVGSAGG [r13_17_TrMRF] | 1.82 ± 0.059 | 3.11 ± 0.07 | 3.47 ± 0.059
KKKIKKIEIEIKIPVKSIEEAKEEVEKLAKELKEKFPEIKKIKVEIIKYDEKKGYITVKITIEVNGKKIEFS [r1_52_TrROS_Hall] | 1.56 ± 0.2 | 1.52 ± 0.28 | 1.24 ± 0.13
SAGGSAGGSGLPIVVQEDGTLVLRREGDGTAAFDVVPLEEFERLPEEFLESLPASALPDPLPLSAGGSAGGS [r12_793_JUSTAS] | -0.428 ± 0.2 | 0.882 ± 0.1 | 1.41 ± 0.11
SAGSLKPGDLLYVRIYVYNPDGELLGEIDELVETEEEAERRLRELAREIEERLGRNVRVLAEIYRYPRLSAG [r5_232_TrMRF] | 3.36 ± 0.088 | 4.19 ± 0.1 | 4.559 ± 0.024
SAGGSAGGSAGGMKTIVFTTLSPEEAQALADELKAKGVDVEVTYEPVPVTPRPLPLNRLSAGGSAGGSAGGS [r10_361_JUSTAS] | 2.04 ± 0.059 | 2.57 ± 0.097 | 3.06 ± 0.063
SAGGSAGGSAGWFTIMFKADSPEKVEEIVDELAQENGLEVEIERNPGEPGYIMITIKPPPSAGGSAGGSAGG [r11_797_TrROS] | 1.47 ± 0.054 | 1.27 ± 0.12 | 0.974 ± 0.21
SAGWIMINSPEDAERIVEELRKLLPPGYKIDVEPMPNGSVMIEFENPEEGREIKIHYDRRNGMYWIEPVSAG [r5_358_TrROS] | 2.58 ± 0.13 | 2.59 ± 0.11 | 2.54 ± 0.079
SKKVKPIATIDVEGMSLEELLAAIKAALPPGEKAIVRIVNADGEVRTIEIDAKTGEIKSLPPGARIYIYPSA [r9_853_TrROS_Hall] | 2.1 ± 0.027 | 2.02 ± 0.048 | 1.95 ± 0.035
SAGGSAGGMTIEEKAEELEEELKKKYPDMEVKVEVDPEKGIVKITITDPKNPGKTTELTFPVEESAGGSAGG [r6_478_JUSTAS] | 4.2 ± 0.45 | 3.36 ± 0.15 | 2.23 ± 0.19
SAGGSAGGSKFKIVSIEVTVETNEDGSKTLTVKIRLEDGSEITITVPENATLEEVLKLLKELASAGGSAGGS [r12_1047_TrROS_Hall] | 3.88 ± 0.2 | 4.31 ± 0.11 | 4.42 ± 0.051
SAGGSAGGSAGSSLPVLETREEGDLVYLLFPETNLLLVVRRGPGEVEVPSAVRVPPDVPLSAGGSAGGSAGG [r17_30_JUSTAS] | 0.805 ± 0.022 | 0.958 ± 0.063 | 1.03 ± 0.047
SAGGMEEILKKLGVKKGDKVKIKIKVEKDGKTETVEIEVPVENLEDILKKLGLSKDQVKITEIKVEKESAGG [r13_681_TrROS_Hall] | 2.17 ± 0.14 | 3.4 ± 0.073 | 3.84 ± 0.1
SAGGSAGGSASTITITTPSGEKVKVTLTSLPTPTTLATITVTSTGKTYTIVIAPDGTITLASAGGSAGGSAG [r3_15_JUSTAS] | 3.4 ± 0.067 | 3.54 ± 0.075 | 3.66 ± 0.026
SAGGSAGGSAGGEDLKINIKISEITFSPDGWITMSMRGGNGRWFQHTIKVKIKLPPGDPSAGGSAGGSAGGS [r10_281_TrROS] | 2.77 ± 0.14 | 3 ± 0.12 | 3.15 ± 0.038

Sequence | folding stability dG unfold [1] [kcal/mol] | folding stability dG unfold [2] [kcal/mol] | folding stability dG unfold [3] [kcal/mol]
SKVKVEVVEVKYNKETKKFTVKLKVYNEDGELIEEIELEFPESEEEVLKKAEELAKELAEKYGLKIEIKPSA [r9_31_TrROS_Hall] | 2.41 ± 0.12 | 3.56 ± 0.12 | 3.89 ± 0.085
SAGGMLEVTEEPLELGDRPVTRTTITLPDGTVVTVTTEAGTGAMTVTYPDGTTKTVTSEEDALAALLSAGGS [r8_168_JUSTAS] | 2.66 ± 0.11 | 2.02 ± 0.094 | 1.19 ± 0.051
SAGGSAGGSGKVLVLPLPGGTVEEVKEIAKEIKEKYPNAKVTTEVFPTPEGDLVAVVTLENPESAGGSAGGS [r12_425_TrMRF] | 0.307 ± 0.11 | 0.0277 ± 0.22 | -0.0724 ± 0.087
SAGSSSSLPNVLVVTLYLPDAPLPIVLPVDTPEDVELAKERVKEIEKELEELGLPVNVEFKYYPPGFPVSAG [r5_823_TrMRF] | 0.497 ± 0.065 | 0.194 ± 0.18 | -1.16 ± 0.84
SAGGSKTVELEIEIDGKLIKIRVEENENGELTVRIEIYDKNGKKVKEIEIKVKSLEEALKALEKLLSAGGSA [r2_82_TrROS_Hall] | 3.21 ± 0.12 | 3.22 ± 0.12 | 3.22 ± 0.12
SAGGSAGGSELSDEEIEALRKPPKVRIRVEIVYPDGTVEEREFSSLEEALAAAKERNVTVKILSAGGSAGGS [r12_244_TrROS_Hall] | 2.86 ± 0.12 | 2.28 ± 0.089 | 1.76 ± 0.058
SAMVITIHPDIPLEELAELLGFPEIEDATVEPLNEGIVPATFHIPEDPDKVILIDFNPEPDFALVLVLSSAG [r14_713_TrMRF] | 1.59 ± 0.067 | 1.98 ± 0.17 | 2.25 ± 0.038
SAGGSAGGSAGGYVGPDQPVIIVEVKVKGARIGKDGKIYYDFEVERIEIREVEEGDNLGSAGGSAGGSAGGS [r10_826_TrMRF] | 2.05 ± 0.21 | 1.82 ± 0.17 | 1.9 ± 0.088
SAGGSAGGSAGGNFKITEPVEEYPNPNGNPIKVFTFKNPDDGPEFTFIFMPNGNWQFIPSAGGSAGGSAGGS [r10_1123_TrROS] | 0.674 ± 0.09 | 0.77 ± 0.12 | 0.797 ± 0.14
SAGGSAGGSAGVVLTEDGYAVATVTVTTTTVEYDEETGEWKETTTTTTETLTVVVPVGATSAGGSAGGSAGG [r17_527_TrROS_Hall] | 2.66 ± 0.2 | 2.22 ± 0.098 | 1.6 ± 0.14
SAGIFRFPDGQEITIPYYARTPNGKITPSEIKEQIKEFLAEQPGVKITEIEVEHEDNYVRVTITVRLPKSAG [r5_688_TrROS] | 1.46 ± 0.14 | 1.01 ± 0.21 | 0.316 ± 0.42
SAGGSAGGSAMKIVKITTTQLPNGTTKVTVTFSDGSTKTVTIPPNQPGKSAEEVAKKVLLESAGGSAGGSAG [r3_368_JUSTAS] | 1.8 ± 0.055 | 2.96 ± 0.087 | 3.37 ± 0.054
SAGGSASPVLTTVTFPGSPEELEAYAAEVRAAGTLLSVSFSPSPDPSYYTITLQVRAPDGTYFTAESAGGSA [r15_177_JUSTAS] | 1.14 ± 0.03 | 1.39 ± 0.061 | 1.55 ± 0.083
SAGEFEVLEVREVDGRLVVRLALPDKPEVVTIVLERHPDGSVRALIEAEGEAADRIVEALPELDEVVVASAG [r5_933_TrMRF] | 1.9 ± 0.036 | 2.46 ± 0.15 | 2.64 ± 0.11
SAGGKEKKPKVELKITSISEFEGGLVIEGEATTPTKKIKVLAVYDPSTGKITVWRETPEGIEPLAEFGSAGG [r13_445_TrMRF] | 1.76 ± 0.059 | 2.18 ± 0.049 | 2.401 ± 0.018
SAERTPVREADIPIPGLPVVVRVRTYAEAVELARKSGVPVVVETVEVEVFLPDGSRVRFPAPGLLVLDGSAG [r14_100_TrMRF] | 1.41 ± 0.0081 | 1.5 ± 0.036 | 1.55 ± 0.055
SMKYVKILLTLKGKPHVITIPSSLSLEEIIDKAIEFAKELGYKDIPKEELKILKVEENPDEEGSSSIIIGSA [r9_1053_TrMRF] | 3.48 ± 0.2 | 3.61 ± 0.14 | 3.74 ± 0.042
SAGGSAGGSAGGMLLSPEEAEKLAAELKAKENVTIKVTPEPSPGKVKVEIIKTKGPKLVSAGGSAGGSAGGS [r10_402_JUSTAS] | -0.0172 ± 0.17 | 0.418 ± 0.16 | 0.54 ± 0.061
SAGGMKKYKIKVENLPPGARIITPDGREIKPGEEVEIELPEDVKEIYVILPDGKIVKVKVEEVEPEEESAGG [r13_441_TrROS_Hall] | 4.12 ± 0.3 | 3.71 ± 0.76 | 4.31 ± 0.15
SAGSLKPSDLVLLRSRPVRVGGKPVVLVDLVVFHPDGSASRAVLTLPSGVGPPVVGVVPVPALVRLIASSAG [r5_831_TrMRF] | 1.53 ± 0.047 | 1.95 ± 0.12 | 2.14 ± 0.084
SAGGSAGGSAGEEKETLTLVLPLEDMSPEEIAKLLEAAGYKVTVEEKDGLLVVKIERKPPSAGGSAGGSAGG [r11_707_TrROS_Hall] | 2.57 ± 0.08 | 2.77 ± 0.065 | 2.855 ± 0.017
